This is an account of results in patent publication EP4036575A1 (Yeda Research and Development Co. Ltd, dated 2022).

This assay has as its target T1, mouse recombinant His-calmodulin (mouse, UniProt P0DP26 1-149).
T1 construct: also called His-CaM; His-tagged calmodulin
The assay is described as follows: SPR (Biacore), His-CaM immobilised on CM5, analyte preincubated with 0.3 mM CaCl2.

Consider KRRWKKNFIAVSAANRFKKISSSGAL, for which the Kd is 8.8 nM.
